# Laboratory results reported in patent publication US12698507B2, “Methods and compositions for conferring and/or enhancing herbicide tolerance using protoporphyrinogen IX oxidase of various cyanobacteria or variant thereof” (FarmHannong Co., Ltd., priority 2019, dated 2026).
# Tested on: PPO-deficient BT3 E. coli (ΔPPO)
# Test: PPO-inhibiting herbicide tolerance test of PPO variants in E. coli (growth on herbicide-containing LB agar)
# Assay type: cell-based
# Details: CyPPO19 variants in BT3 (ΔPPO) E. coli; LB agar with 0 to 2,000 μM herbicide, 37° C., dark, 16-20 hours
# Outline: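 Transformants were grown to OD600 0.5–1, adjusted to OD600=0.5 and spotted as 10-fold dilutions on LB agar with ampicillin (100 μg/mL) and 0 to 2,000 μM herbicide. Plates were kept at 37° C in the dark for 16-20 hours; growth was scored relative to wild type, one '+' per 10-fold resistance.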
Molecule,"tolerance level relative to wild type, Carfentrazone","tolerance level relative to wild type, Flumioxazin","tolerance level relative to wild type, Fomesafen","tolerance level relative to wild type, Oxyfluorfen","tolerance level relative to wild type, Saflufenacil","tolerance level relative to wild type, Sulfentrazone","tolerance level relative to wild type, Tiafenacil"
"CyPPO19 V305M + F360L: variant of CyPPO19 PPO protein (SEQ ID NO: 1) (protein, Synthetic_PPO of Thermosynechococcus elongatus PKUAC-SCTE542 (comprising GenBank No. CP032152.1)) MSEVDVAIVGGGLSGLSLAWRLQQSAPQYSVVLLEASDRLGGNITTQTAEGFVWELGPNSFAPTPALLQLIAEVGLQSELIRGDRHLPRYIYWRGQLYPLQPTRPLALATSNLLSPWGKVRAALGALGFVPPYLGSGDESVNSFFRRHLGQEVAERLVAPFVSGVYAGDPQQLSAAAAFRRIAQLEKLGGGLIAGALHLRRQQAPKPKPPTSVQMRPGELGSFKEGLAALPRAIAQQLKAPIHLQTPVQEITPDPKGGYLLRSGEQTWRARSVVLATPAYQTAELVAPFQPAIARVLATIPYPTMACVVLAYPAGLGRSVRPGFGVLIPRSQGIRTLGTIWSSCLFPQRTPAGWQVFTSLIGGATDPDLASLSEEAIVQQVQQDLNRLLDLPAAKARLLGMKVWRRAIPQYMVGYPEQWQQVTHALSQTPGLFLCSNYAEGVALGDRVEHGNRTAAAVAAYLSGGQP",+ (‘+’ per each 10-fold resistance),++++ (‘+’ per each 10-fold resistance),++ (‘+’ per each 10-fold resistance),++ (‘+’ per each 10-fold resistance),++++ (‘+’ per each 10-fold resistance),++ (‘+’ per each 10-fold resistance),++++ (‘+’ per each 10-fold resistance)
"CyPPO19 L327T + F360M: variant of CyPPO19 PPO protein (SEQ ID NO: 1) (protein, Synthetic_PPO of Thermosynechococcus elongatus PKUAC-SCTE542 (comprising GenBank No. CP032152.1)) MSEVDVAIVGGGLSGLSLAWRLQQSAPQYSVVLLEASDRLGGNITTQTAEGFVWELGPNSFAPTPALLQLIAEVGLQSELIRGDRHLPRYIYWRGQLYPLQPTRPLALATSNLLSPWGKVRAALGALGFVPPYLGSGDESVNSFFRRHLGQEVAERLVAPFVSGVYAGDPQQLSAAAAFRRIAQLEKLGGGLIAGALHLRRQQAPKPKPPTSVQMRPGELGSFKEGLAALPRAIAQQLKAPIHLQTPVQEITPDPKGGYLLRSGEQTWRARSVVLATPAYQTAELVAPFQPAIARVLATIPYPTVACVVLAYPAGLGRSVRPGFGVTIPRSQGIRTLGTIWSSCLFPQRTPAGWQVFTSMIGGATDPDLASLSEEAIVQQVQQDLNRLLDLPAAKARLLGMKVWRRAIPQYMVGYPEQWQQVTHALSQTPGLFLCSNYAEGVALGDRVEHGNRTAAAVAAYLSGGQP",+ (‘+’ per each 10-fold resistance),+++ (‘+’ per each 10-fold resistance),+ (‘+’ per each 10-fold resistance),++ (‘+’ per each 10-fold resistance),+ (‘+’ per each 10-fold resistance),+ (‘+’ per each 10-fold resistance),+++ (‘+’ per each 10-fold resistance)
"CyPPO19 V305M + F360T: variant of CyPPO19 PPO protein (SEQ ID NO: 1) (protein, Synthetic_PPO of Thermosynechococcus elongatus PKUAC-SCTE542 (comprising GenBank No. CP032152.1)) MSEVDVAIVGGGLSGLSLAWRLQQSAPQYSVVLLEASDRLGGNITTQTAEGFVWELGPNSFAPTPALLQLIAEVGLQSELIRGDRHLPRYIYWRGQLYPLQPTRPLALATSNLLSPWGKVRAALGALGFVPPYLGSGDESVNSFFRRHLGQEVAERLVAPFVSGVYAGDPQQLSAAAAFRRIAQLEKLGGGLIAGALHLRRQQAPKPKPPTSVQMRPGELGSFKEGLAALPRAIAQQLKAPIHLQTPVQEITPDPKGGYLLRSGEQTWRARSVVLATPAYQTAELVAPFQPAIARVLATIPYPTMACVVLAYPAGLGRSVRPGFGVLIPRSQGIRTLGTIWSSCLFPQRTPAGWQVFTSTIGGATDPDLASLSEEAIVQQVQQDLNRLLDLPAAKARLLGMKVWRRAIPQYMVGYPEQWQQVTHALSQTPGLFLCSNYAEGVALGDRVEHGNRTAAAVAAYLSGGQP",+ (‘+’ per each 10-fold resistance),++ (‘+’ per each 10-fold resistance),++ (‘+’ per each 10-fold resistance),+ (‘+’ per each 10-fold resistance),++ (‘+’ per each 10-fold resistance),+ (‘+’ per each 10-fold resistance),++ (‘+’ per each 10-fold resistance)
"CyPPO19 L327T + F360V: variant of CyPPO19 PPO protein (SEQ ID NO: 1) (protein, Synthetic_PPO of Thermosynechococcus elongatus PKUAC-SCTE542 (comprising GenBank No. CP032152.1)) MSEVDVAIVGGGLSGLSLAWRLQQSAPQYSVVLLEASDRLGGNITTQTAEGFVWELGPNSFAPTPALLQLIAEVGLQSELIRGDRHLPRYIYWRGQLYPLQPTRPLALATSNLLSPWGKVRAALGALGFVPPYLGSGDESVNSFFRRHLGQEVAERLVAPFVSGVYAGDPQQLSAAAAFRRIAQLEKLGGGLIAGALHLRRQQAPKPKPPTSVQMRPGELGSFKEGLAALPRAIAQQLKAPIHLQTPVQEITPDPKGGYLLRSGEQTWRARSVVLATPAYQTAELVAPFQPAIARVLATIPYPTVACVVLAYPAGLGRSVRPGFGVTIPRSQGIRTLGTIWSSCLFPQRTPAGWQVFTSVIGGATDPDLASLSEEAIVQQVQQDLNRLLDLPAAKARLLGMKVWRRAIPQYMVGYPEQWQQVTHALSQTPGLFLCSNYAEGVALGDRVEHGNRTAAAVAAYLSGGQP",+ (‘+’ per each 10-fold resistance),++++ (‘+’ per each 10-fold resistance),+ (‘+’ per each 10-fold resistance),++ (‘+’ per each 10-fold resistance),++ (‘+’ per each 10-fold resistance),++ (‘+’ per each 10-fold resistance),++++ (‘+’ per each 10-fold resistance)
"CyPPO19 V305L + F360L: variant of CyPPO19 PPO protein (SEQ ID NO: 1) (protein, Synthetic_PPO of Thermosynechococcus elongatus PKUAC-SCTE542 (comprising GenBank No. CP032152.1)) MSEVDVAIVGGGLSGLSLAWRLQQSAPQYSVVLLEASDRLGGNITTQTAEGFVWELGPNSFAPTPALLQLIAEVGLQSELIRGDRHLPRYIYWRGQLYPLQPTRPLALATSNLLSPWGKVRAALGALGFVPPYLGSGDESVNSFFRRHLGQEVAERLVAPFVSGVYAGDPQQLSAAAAFRRIAQLEKLGGGLIAGALHLRRQQAPKPKPPTSVQMRPGELGSFKEGLAALPRAIAQQLKAPIHLQTPVQEITPDPKGGYLLRSGEQTWRARSVVLATPAYQTAELVAPFQPAIARVLATIPYPTLACVVLAYPAGLGRSVRPGFGVLIPRSQGIRTLGTIWSSCLFPQRTPAGWQVFTSLIGGATDPDLASLSEEAIVQQVQQDLNRLLDLPAAKARLLGMKVWRRAIPQYMVGYPEQWQQVTHALSQTPGLFLCSNYAEGVALGDRVEHGNRTAAAVAAYLSGGQP",+ (‘+’ per each 10-fold resistance),++++ (‘+’ per each 10-fold resistance),+++ (‘+’ per each 10-fold resistance),++ (‘+’ per each 10-fold resistance),++++ (‘+’ per each 10-fold resistance),++ (‘+’ per each 10-fold resistance),++++ (‘+’ per each 10-fold resistance)
"CyPPO19 L327T + F360I: variant of CyPPO19 PPO protein (SEQ ID NO: 1) (protein, Synthetic_PPO of Thermosynechococcus elongatus PKUAC-SCTE542 (comprising GenBank No. CP032152.1)) MSEVDVAIVGGGLSGLSLAWRLQQSAPQYSVVLLEASDRLGGNITTQTAEGFVWELGPNSFAPTPALLQLIAEVGLQSELIRGDRHLPRYIYWRGQLYPLQPTRPLALATSNLLSPWGKVRAALGALGFVPPYLGSGDESVNSFFRRHLGQEVAERLVAPFVSGVYAGDPQQLSAAAAFRRIAQLEKLGGGLIAGALHLRRQQAPKPKPPTSVQMRPGELGSFKEGLAALPRAIAQQLKAPIHLQTPVQEITPDPKGGYLLRSGEQTWRARSVVLATPAYQTAELVAPFQPAIARVLATIPYPTVACVVLAYPAGLGRSVRPGFGVTIPRSQGIRTLGTIWSSCLFPQRTPAGWQVFTSIIGGATDPDLASLSEEAIVQQVQQDLNRLLDLPAAKARLLGMKVWRRAIPQYMVGYPEQWQQVTHALSQTPGLFLCSNYAEGVALGDRVEHGNRTAAAVAAYLSGGQP",+ (‘+’ per each 10-fold resistance),++++ (‘+’ per each 10-fold resistance),+ (‘+’ per each 10-fold resistance),++ (‘+’ per each 10-fold resistance),++ (‘+’ per each 10-fold resistance),+++ (‘+’ per each 10-fold resistance),++++ (‘+’ per each 10-fold resistance)
